# How the values were obtained:
# [1] = target: humanized variant of IPN002 (hu-IPN002); experiment: competition ELISA; competitor: biotin-Tau 15-44 on hu-IPN002
# [2] = target: 383 amino acid recombinant tau (UniProt P10636); experiment: ELISA binding assay, A450
# [3] = target: 383 amino acid recombinant tau (UniProt P10636); experiment: ELISA, solid phase, biotin-rTau383
# [4] = target: 383 amino acid recombinant tau (UniProt P10636); experiment: ELISA, solution phase, biotin-rTau383
# [5] = target: 383 amino acid recombinant tau (UniProt P10636); experiment: solid phase ELISA, biotin-rTau383, A450
# [6] = target: 383 amino acid recombinant tau (UniProt P10636); experiment: solution phase ELISA, biotin-rTau383, A450
# [7] = target: 383 amino acid recombinant tau (UniProt P10636); experiment: peptide binding ELISA (A450), hu-IPN002 titrated
# [8] = target: 383 amino acid recombinant tau (UniProt P10636); experiment: ELISA, serially diluted hu-IPN002 with biotin-rTau383
# biotin-Tau 15-24 = experiment: ELISA, serially diluted hu-IPN002 with biotin-Tau 15-24
# biotin-phospho Tau 15-24 = experiment: ELISA, serially diluted hu-IPN002 with biotin-Tau 15-24 PHOSPHO
# [9] = target: 383 amino acid recombinant tau (UniProt P10636); experiment: peptide binding ELISA (A450), hu-IPN002 titrated; table under the curves
# Sequence of 383 amino acid recombinant tau (P10636 other isoform, or with tags, fused parts or gaps limits assumed): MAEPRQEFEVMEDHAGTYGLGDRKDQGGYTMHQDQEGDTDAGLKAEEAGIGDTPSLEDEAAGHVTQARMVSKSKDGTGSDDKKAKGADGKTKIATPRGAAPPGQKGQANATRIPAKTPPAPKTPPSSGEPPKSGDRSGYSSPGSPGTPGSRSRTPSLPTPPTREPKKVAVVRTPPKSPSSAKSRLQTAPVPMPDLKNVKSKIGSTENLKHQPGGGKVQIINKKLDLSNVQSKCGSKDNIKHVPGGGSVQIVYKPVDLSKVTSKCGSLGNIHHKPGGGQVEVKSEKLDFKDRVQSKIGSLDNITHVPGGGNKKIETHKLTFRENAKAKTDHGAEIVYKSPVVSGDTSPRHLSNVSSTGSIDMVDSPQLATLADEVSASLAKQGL
# Sequence of Peptide 2 (Tau amino acids 15-44) (peptide): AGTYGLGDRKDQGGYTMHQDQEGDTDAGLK
Substance,IC50 (read off the curve) [1] [nM],EC50 (read off the curve) [2] [nM],Kd [2] [nM],Kd [3] [nM],Kd [4] [nM],EC50 (read off the curve) [5] [nM],EC50 (read off the curve) [6] [nM],EC50 (read off the curve) [7] [nM],Kd [8] [nM],Kd (biotin-Tau 15-24) [nM],Kd (biotin-phospho Tau 15-24) [nM],Kd [9] [nM]
Peptide 2 (Tau amino acids 15-44),100,,,,,,,,,,,
humanized variant of IPN002 (hu-IPN002) (antibody),,0.3,0.288,0.107,0.114,0.1,0.1,0.3,0.283,0.754,0.768,0.288

# Reference: patent US20160122421A1
